Measurements published in patent publication US20240382610A1 (TALLAC THERAPEUTICS, published 2024).

T1: Human nectin-4 ECD-6His (TNT-175) (human, UniProt Q96NY8 32-349)
T1 construct: the entry holds the extracellular domain with the C-terminal 6His tag
T1 sequence: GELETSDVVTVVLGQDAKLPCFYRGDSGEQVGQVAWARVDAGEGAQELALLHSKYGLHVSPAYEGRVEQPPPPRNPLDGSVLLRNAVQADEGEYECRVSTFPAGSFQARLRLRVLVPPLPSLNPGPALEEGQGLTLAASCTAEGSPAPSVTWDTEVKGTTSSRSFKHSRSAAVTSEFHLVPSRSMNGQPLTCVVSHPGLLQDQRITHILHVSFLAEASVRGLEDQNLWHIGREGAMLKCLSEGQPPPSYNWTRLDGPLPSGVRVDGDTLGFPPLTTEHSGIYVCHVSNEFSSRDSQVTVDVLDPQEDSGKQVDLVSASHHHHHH

T2: human nectin-4 on cells (human, UniProt Q96NY8 32-510)
T2 construct: whole, on cells; also called PVRL4
T2 sequence (looked up): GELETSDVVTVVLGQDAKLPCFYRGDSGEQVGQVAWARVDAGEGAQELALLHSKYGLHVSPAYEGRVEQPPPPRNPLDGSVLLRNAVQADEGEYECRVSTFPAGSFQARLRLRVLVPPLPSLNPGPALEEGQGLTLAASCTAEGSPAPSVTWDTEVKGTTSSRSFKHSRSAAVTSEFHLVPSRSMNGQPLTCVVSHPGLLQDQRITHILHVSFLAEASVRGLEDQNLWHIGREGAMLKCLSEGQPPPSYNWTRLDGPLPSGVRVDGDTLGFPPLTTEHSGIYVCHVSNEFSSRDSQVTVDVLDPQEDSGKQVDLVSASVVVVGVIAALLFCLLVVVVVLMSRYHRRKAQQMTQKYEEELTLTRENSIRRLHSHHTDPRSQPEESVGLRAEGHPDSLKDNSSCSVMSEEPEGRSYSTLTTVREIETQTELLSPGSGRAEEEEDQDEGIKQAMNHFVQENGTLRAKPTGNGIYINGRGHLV

B1: TNT-193 (antibody, mouse IgG2a, kappa)
heavy: QVQLQESGPGLVKPSGTLSLTCTVSGGSISSGGYYWAWIRQPPGKGLEWIGSIYYTGSTYYNPSLKSRVTIYVDTSKNQFSLKLSSVTAADTAVYYCARDPFPEPPDAFDIWGQGTMVTVSSAKTTAPSVYPLAPVCGDTTGSSVTLGCLVKGYFPEPVTLTWNSGSLSSGVHTFPAVLQSDLYTLSSSVTVTSSTWPSQSITCNVAHPASSTKVDKKIEPRGPTIKPCPPCKCPAPNLLGGPSVFIFPPKIKDVLMISLSPIVTCVVVDVSEDDPDVQISWFVNNVEVHTAQTQTHREDYNSTLRVVSALPIQHQDWMSGKEFKCKVNNKDLPAPIERTISKPKGSVRAPQVYVLPPPEEEMTKKQVTLTCMVTDFMPEDIYVEWTNNGKTELNYKNTEPVLDSDGSYFMYSKLRVEKKNWVERNSYSCSVVHEGLHNHHTTKSFSRTPGRPQGFGPP
light: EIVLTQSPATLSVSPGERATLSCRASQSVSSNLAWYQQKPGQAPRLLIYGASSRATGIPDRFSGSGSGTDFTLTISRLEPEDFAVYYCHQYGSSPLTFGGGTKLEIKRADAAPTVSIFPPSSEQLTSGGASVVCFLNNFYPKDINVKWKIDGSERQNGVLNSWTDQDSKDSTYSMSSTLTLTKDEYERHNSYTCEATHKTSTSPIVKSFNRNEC
B2: TNT-194 (antibody, mouse IgG2a, kappa)
heavy: EVQLVQSGAEVKKPGASVKVSCKASGYTFTSYDINWVRQAPGQGLEWMGGIIPIFGTANYAQKFQGRVTITADESTSTAYMELRSLRSEDTAVYYCASTAVAGFGIDYWGQGTLVTVSSAKTTAPSVYPLAPVCGDTTGSSVTLGCLVKGYFPEPVTLTWNSGSLSSGVHTFPAVLQSDLYTLSSSVTVTSSTWPSQSITCNVAHPASSTKVDKKIEPRGPTIKPCPPCKCPAPNLLGGPSVFIFPPKIKDVLMISLSPIVTCVVVDVSEDDPDVQISWFVNNVEVHTAQTQTHREDYNSTLRVVSALPIQHQDWMSGKEFKCKVNNKDLPAPIERTISKPKGSVRAPQVYVLPPPEEEMTKKQVTLTCMVTDFMPEDIYVEWTNNGKTELNYKNTEPVLDSDGSYFMYSKLRVEKKNWVERNSYSCSVVHEGLHNHHTTKSFSRTPGRPQGFGPP
light: DIQMTQSPSSLSASVGDRVTITCRASQGISNYLAWFQQKPGKAPKSLISAASSLQSGVPSRFSGSGSGTDFTLTISSLQPEDFATYYCLQHDSFPITFGGGTKLEIKRADAAPTVSIFPPSSEQLTSGGASVVCFLNNFYPKDINVKWKIDGSERQNGVLNSWTDQDSKDSTYSMSSTLTLTKDEYERHNSYTCEATHKTSTSPIVKSFNRNEC
B3: TNT-195 (antibody, mouse IgG2a, kappa)
heavy: EVQLVQSGAEVKKPGSSVKVSCKASGGTFSSYAISWVRQAPGQGLEWMGGIIPIFGTANYAQKFQGRVTITADKSTSTAYMELSSLRSEDTAVYYCAAGYYYDSSGYYHQPYYFDYWGQGTLVTVSSAKTTAPSVYPLAPVCGDTTGSSVTLGCLVKGYFPEPVTLTWNSGSLSSGVHTFPAVLQSDLYTLSSSVTVTSSTWPSQSITCNVAHPASSTKVDKKIEPRGPTIKPCPPCKCPAPNLLGGPSVFIFPPKIKDVLMISLSPIVTCVVVDVSEDDPDVQISWFVNNVEVHTAQTQTHREDYNSTLRVVSALPIQHQDWMSGKEFKCKVNNKDLPAPIERTISKPKGSVRAPQVYVLPPPEEEMTKKQVTLTCMVTDFMPEDIYVEWTNNGKTELNYKNTEPVLDSDGSYFMYSKLRVEKKNWVERNSYSCSVVHEGLHNHHTTKSFSRTPGRPQGFGPP
light: DIQMTQSPSTLSASVGDRVTITCRASQGISNYLAWYQQKPGKAPKLLIYAASSLQSGVPSRFSGSGSGTDFTLTISSLQPEDFATYYCQQSYSTPLTFGGGTKVEIKRADAAPTVSIFPPSSEQLTSGGASVVCFLNNFYPKDINVKWKIDGSERQNGVLNSWTDQDSKDSTYSMSSTLTLTKDEYERHNSYTCEATHKTSTSPIVKSFNRNEC

Legend:
[1] = biological target: T1, Human nectin-4 ECD-6His (TNT-175); test: competition ELISA; nectin-4 ECD premixed with TNT210, captured by the coat antibody; % of signal without premix antibody
Protocol: (§1) Competition experiments of nectin-4 antibodies. ELISA plates were coated overnight at 4° C. with goat anti-mouse IgG at […] in PBS. […] As positive control, nectin-4 was diluted at same concentrations without a premix antibody. Two wells per plate were allocated for diluent only as negative/background control. Plates were washed as previously, 50 μL/well of premix was added to each plate and incubated for one hour. Plates were washed then incubated at room temperature for one hour with Rabbit anti 6× HIS HRP diluted 1:4,000 in diluent. Plates were washed once more and incubated at room temperature for 20 minutes with 50 μL/well of ABTS substrate. […] Binding was measured as an Optical Density (O.D.) value normalized to background and calculated as a percentage of positive control at the lowest nectin-4 dilution for greatest resolution.

[2] = biological target: T1, Human nectin-4 ECD-6His (TNT-175); test: SPR ProteOn, mAb on protein A
Protocol: Initial testing of binding of nectin-4 antibodies to nectin-4. […] Biotinylated protein A (15 μg/mL) was immobilized to the surface of an NLC chip. 30 nM of purified mAb supernatant was diluted in PBS-T and captured over the protein A surface. Serial dilutions of human nectin-4 were injected over the mAb-coated chips, and binding kinetics were determined. Chips were regenerated using 4:1 v/v of IgG elution butter/4M NaCl.

[3] = biological target: T1, Human nectin-4 ECD-6His (TNT-175); test: competition ELISA; nectin-4 ECD premixed with TNT206, captured by the coat antibody; % of signal without premix antibody
Protocol: as §1

[4] = biological target: T1, Human nectin-4 ECD-6His (TNT-175); test: competition ELISA; nectin-4 ECD premixed with TNT203, captured by the coat antibody; % of signal without premix antibody
Protocol: as §1

[5] = biological target: T1, Human nectin-4 ECD-6His (TNT-175); test: competition ELISA; nectin-4 ECD premixed with TNT201, captured by the coat antibody; % of signal without premix antibody
Protocol: as §1

[6] = biological target: T1, Human nectin-4 ECD-6His (TNT-175); test: competition ELISA; nectin-4 ECD premixed with TNT207, captured by the coat antibody; % of signal without premix antibody
Protocol: as §1

[7] = biological target: T1, Human nectin-4 ECD-6His (TNT-175); test: competition ELISA; nectin-4 ECD premixed with TNT212, captured by the coat antibody; % of signal without premix antibody
Protocol: as §1

[8] = biological target: T1, Human nectin-4 ECD-6His (TNT-175); test: competition ELISA; nectin-4 ECD premixed with TNT202, captured by the coat antibody; % of signal without premix antibody
Protocol: as §1

human nectin-4 on cells = biological target: T2, human nectin-4 on cells; test: flow cytometry MFI, MNK74 (nectin-4 positive) over AGS (negative)
Protocol: Cell binding of nectin-4 antibodies. Cell binding of the nectin-4 antibodies was also assessed. MNK74 (nectin-4 positive) and AGS (nectin-4 negative) cells were obtained from ATCC and cultured according to their protocols. Cells were detached with TrypLE (Gibco) and washed by centrifugation for five minutes at 400×g with FACS buffer (PBS+2% FBS). Cells were resuspended in FACS buffer, plated in 96-well format (0.25 e6/well) then pelleted by centrifugation for five minutes at 400×g. Cells were stained at 4° C. in Fixable Viability Dye eFluor 506 (eBioscience) diluted 1:4,000 in PBS. […] Cells were centrifuged, washed once in FACS buffer and stained at 4° C. with Goat F(ab′)₂ anti-Mouse IgG APC (Southern Biotech) diluted 1:400 in FACS buffer for 30 minutes or appropriate anti-human IgG. Cells were centrifuged, washed twice and fixed in 0.5% paraformaldehyde. Cells were analyzed on Attune NxT Flow Cytometer (Thermo Fisher), with subsequent data analysis by Flowjo 10.7 (BD). Dead cells were excluded by gating on the eFluor 506-negative population. […] Binding was assessed by median fluorescent intensity.

[9] = biological target: T1, Human nectin-4 ECD-6His (TNT-175); test: competition ELISA; nectin-4 ECD premixed with TNT209, captured by the coat antibody; % of signal without premix antibody
Protocol: as §1

[10] = biological target: T1, Human nectin-4 ECD-6His (TNT-175); test: competition ELISA; nectin-4 ECD premixed with TNT208, captured by the coat antibody; % of signal without premix antibody
Protocol: as §1

[11] = biological target: T1, Human nectin-4 ECD-6His (TNT-175); test: competition ELISA; nectin-4 ECD premixed with TNT205, captured by the coat antibody; % of signal without premix antibody
Protocol: as §1

[12] = biological target: T1, Human nectin-4 ECD-6His (TNT-175); test: competition ELISA; nectin-4 ECD premixed with TNT204, captured by the coat antibody; % of signal without premix antibody
Protocol: as §1

[13] = biological target: T1, Human nectin-4 ECD-6His (TNT-175); test: competition ELISA; nectin-4 ECD premixed with TNT211, captured by the coat antibody; % of signal without premix antibody
Protocol: as §1

Row | Binder | % of Positive [1] | Kd [2] | koff [2] | kon [2] | % of Positive [3] | % of Positive [4] | % of Positive [5] | % of Positive [6] | % of Positive [7] | % of Positive [8] | Fold-change of binding to MNK74 compared to control AGS (human nectin-4 on cells) | % of Positive [9] | % of Positive [10] | % of Positive [11] | % of Positive [12] | % of Positive [13]
1 | B1 | 2.1% | 3.73 nM | 0.00837 s⁻¹ | 2.24e+06 M⁻¹ s⁻¹ | 3.1% | 17% | 2.2% | 1.6% | 3.7% | 3% | 5.2 fold | 5.1% | 2.4% | 8.4% | 1.9% | 6%
2 | B2 | 11% | 0.585 nM | 0.0023 s⁻¹ | 3.92e+06 M⁻¹ s⁻¹ | 43.1% | 65.2% | 6.7% | 18.4% | 21.2% | 27.9% | 7 fold | 66.5% | 26.4% | 75.3% | 18.7% | 46.1%
3 | B3 | 16.3% | 1.34 nM | 0.00125 s⁻¹ | 930000 M⁻¹ s⁻¹ | 35.8% | 51.5% | 6.6% | 18.3% | 20.7% | 24.7% | 6.4 fold | 56.2% | 23.1% | 63.2% | 15.2% | 46.9%
